Results on four molecules are retold here after patent US20220204611A1 (Amgen, published 2022).

The target in assay [1] is T1, recombinant soluble human TREM2 protein (human TREM2 ECD-FlagHis) (human, UniProt Q9NZC2 19-174).
T1 sequence: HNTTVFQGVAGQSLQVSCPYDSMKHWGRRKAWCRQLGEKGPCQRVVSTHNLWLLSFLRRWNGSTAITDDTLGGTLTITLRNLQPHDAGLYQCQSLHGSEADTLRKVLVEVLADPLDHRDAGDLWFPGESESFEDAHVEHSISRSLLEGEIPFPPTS
The assay is described as follows: Octet BLI binning; competitor: load Ab 24A10. On the procedure: (§1) Each of sixteen different anti-TREM2 antibodies produced from hybridomas were quantitated and loaded onto one of the anti-human Fc sensors at 5 μg/mL for 2 minutes (“Load Antibody”). The sensor was then blocked with 100 μg/mL of an irrelevant human IgG2 antibody for 5 minutes. […] Next, each of the sixteen different anti-TREM2 antibodies (“Sandwich Antibody”) was added to the sensor at 5 μg/mL and allowed to bind for 5 minutes. All assay buffers contained 10 mM Tris (pH 7.6), 0.1% Triton X-100, 150 mM NaCl, 1 mM CaCl₂, and 1 mg/mL BSA. The assay was conducted at 25° C. Experimental kinetic results were fit to a 1:1 binding model.
(§2) However, if addition of the sandwich antibody produces a binding event, then the sandwich antibody binds to a different epitope on human TREM2 than the load antibody and the two antibodies are categorized into different epitope bins.
(In general: Biolayer interferometry detects binding as a change in optical thickness at a sensor tip.)

Assay [2] concerns the target T1, recombinant soluble human TREM2 protein …. Put plainly: Octet BLI binning; competitor: load Ab 26A10. The protocol: as §1, §2
The target is the same in assay [3]. The assay is described as follows: Octet BLI binning; competitor: load Ab 26F2. On the procedure:
as §1, §2

Assay [4] addresses T2, human TREM2 on cells (human, UniProt Q9NZC2 19-230).
T2 sequence: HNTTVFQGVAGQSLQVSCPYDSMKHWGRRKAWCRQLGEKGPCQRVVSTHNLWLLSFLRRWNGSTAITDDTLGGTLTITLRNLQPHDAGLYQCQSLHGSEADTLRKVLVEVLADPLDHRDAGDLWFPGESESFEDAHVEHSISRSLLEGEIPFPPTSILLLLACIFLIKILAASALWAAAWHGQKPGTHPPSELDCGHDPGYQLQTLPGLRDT
Put plainly: cell-based or functional assay.

For assay [5], the target named is T1, recombinant soluble human TREM2 protein …. Put plainly: Octet BLI binning; competitor: load Ab 26C10. The protocol:
as §1, §2

For assay [6] the target is unchanged. Put plainly: Octet BLI binning; competitor: load Ab 32E3. The protocol:
as §1, §2

The target is the same in assay [7]. Put plainly: Octet BLI binning; competitor: load Ab 16B8. On the procedure:
as §1, §2

Assay [8] has the same target. Put plainly: Octet BLI binning; competitor: load Ab 10E3. On the procedure: as §1, §2
In assay [9] the target is T3, soluble human TREM2 protein (TREM2 ECD-huIgG1 Fc fusion protein) (human, UniProt Q9NZC2 19-174, biotinylated).
T3 construct: also called biotinylated soluble human TREM2 protein
T3 sequence: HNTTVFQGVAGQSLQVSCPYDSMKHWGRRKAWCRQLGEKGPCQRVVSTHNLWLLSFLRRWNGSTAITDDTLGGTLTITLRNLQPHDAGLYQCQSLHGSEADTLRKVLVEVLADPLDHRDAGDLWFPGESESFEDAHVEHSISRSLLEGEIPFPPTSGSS
The assay is described as follows: ELISA, hybridoma supernatant on captured biotinylated TREM2 ECD-Fc. The protocol: Exhausted hybridoma supernatants were tested for binding to human TREM2 by ELISA. Briefly, neutravidin plates were generated by incubating a 384 well Corning Assay Plate 3702 with neutravidin (Thermo 3100B) at 10 μg/mL (40 μL/well) in 1× PBS at 4° C. overnight. The plates were washed with 1× PBS using a Biotek plate washer and then blocked with 1% milk/1× PBS (90 μL/well) at room temperature (RT) for 30 minutes. The plates were then washed again with 1× PBS using the plate washer. […] The plates were then incubated at RT for 1 hour to immobilize the TREM2 protein to the wells of the plates. Following the incubation, the plates were again washed with 1× PBS using the plate washer. 10 μL of each hybridoma supernatant to be tested and 40 μL of 1% milk/1× PBS (1:5 dilution) were added to each well of the plates and incubated at RT for 1 hour. Again, the plates were washed with 1× PBS using the plate washer. […] After the plates were washed with 1× PBS using the plate washer, 40 μL/well of TMB substrate (Neogen, lot #150114) was added to the plates and the plates were incubated at RT for 30 minutes. The reaction was quenched with 1N hydrochloric acid (40 uL/well) following the incubation period. OD readings at 450 nm were obtained with a plate reader.

The target of assay [10] is T1, recombinant soluble human TREM2 protein …. The assay is described as follows: Octet BLI binning; competitor: load Ab 13E7. On the procedure: as §1, §2
The target is the same in assay [11]. Put plainly: Octet BLI binning; competitor: load Ab 33B12. On the procedure:
as §1, §2

Assay [12] has the same target. The assay is described as follows: Octet BLI binning; competitor: load Ab 6E7. The protocol:
as §1, §2

For assay [13] the target is unchanged. Put plainly: Octet BLI binning; competitor: load Ab 24G6. On the procedure:
as §1, §2

The target is the same in assay [14]. The assay is described as follows: Octet BLI binning; competitor: load Ab 24F4. On the procedure: as §1, §2
Assay [15] has the same target. Put plainly: Octet BLI binning; competitor: load Ab 5E3. The protocol:
as §1, §2

For assay [16] the target is unchanged. The assay is described as follows: Octet BLI binning; competitor: load Ab 25F12. The protocol:
as §1, §2

The target of assay [17] is T2, human TREM2 on cells. The assay is described as follows: cell-based or functional assay. This is another data set of the same source.
Assay [18] has as its target T1, recombinant soluble human TREM2 protein …. The assay is described as follows: Octet BLI binning; competitor: load Ab 4C5. The protocol:
as §1, §2

Assay [19] shares this target. The assay is described as follows: Octet BLI binning; competitor: load Ab 4G10. On the procedure: as §1, §2

B1: 24A10 (antibody, human IgG2, V domains shown)
VH: EVQVLESGGGLVQPGGSLRLSCAASGFTFSNYAMSWVRQAPGKGLEWVSAISGSGGSTYYADSVKGRFTISRDNSKNTLYLQMNSLRAEDTAVYYCAKGGWELFYWGQGTLVTVSS
VL: not shown
notes: human IgG2 from hybridoma
Regarding B1, the sandwich binding signal in assay [1] came to 0.023; in assay [2], 0.596; in assay [3], 0.544; in [5], 0.605; in assay [6], 0.461; in assay [7] it was 0.481. In addition, the sandwich binding signal in [8] is 0.347; in assay [10], 0.375; in assay [11] it was 0.439; in [12], 0.616; in [13], -0.031; in assay [14] it was 0.585. In addition, the sandwich binding signal in assay [15] is 0.53; in assay [16], 0.509. Besides, the “pSyk EC50” value in the assay with human TREM2 on cells [4] is 32.9 nM. In addition, the “OD 450” value in [9] came to 2.75 OD450.

B2: 16B8 (antibody, human IgG4, V domains shown)
VH: QVQLVQSGAEVKKPGASVKVSCKASGYTFTNYGISWVRQAPGQGLEWMGWISAYNGNTNYAQKLQGRVTMTTDTSTSTVYMELRSLRSDDTAVYYCARRGYSYGSFDYWGQGTLVTVSS
VL: DIQMTQSPSSVSASVGDRVTVTCRASQDINSWLAWYQQKPGKAPKLLIYAASSLQTGVPSRFSGSGSGTDFTLTISSLQPEDFATYSCQQSNSFPITFGQGTRLEIK
notes: human IgG4 (G4) from hybridoma
For B2, the sandwich binding signal in [1] is 0.423; in [2] it was 0.028; in assay [3], 0.031; in assay [5] it was 0.006; in assay [6] it was 0.4; in assay [7] it was -0.009. Further, the sandwich binding signal is 0.28 in assay [8]; 0.312 in assay [10]; 0.007 in assay [11]; 0.504 in assay [12]; 0.369 in assay [13]; 0.454 in assay [14]. Besides, the sandwich binding signal in [15] was -0.004; in assay [16], 0.399. Moreover, the “Emax (% maximum activation compared to RnD antibody)” value with human TREM2 on cells [17] was 140%. Also, the “pSyk EC50, differentiated THP-1 cells” value with human TREM2 on cells [17] stood at 0.418 nM. The “OD 450” value in assay [9] came to 0.59 OD450.

B3: 25F12 (antibody, human IgG2, V domains shown)
VH: QVQLQQWGAGLLKPSETLSLTCAVYGGSFSSYYWSWIRQPPGKGLEWIGEINHSGNTNYNPSLKSRVTISVDTSKNQFSLKLSSVTAADTAVYYCAREGYYDILTGYHDAFDIWDQGTMVTVFS
VL: not shown
notes: human IgG2 from hybridoma
As for B3, the sandwich binding signal came out at 0.34 in [1]; 0.347 in assay [2]; 0.154 in assay [18]; 0.33 in [3]; 0.327 in assay [5]; 0.236 in assay [6]. For the same molecule, the sandwich binding signal in assay [19] was 0.142; in [7] it was 0.252; in assay [8], 0.089; in assay [10] it was 0.104; in assay [11], 0.275; in assay [12], 0.213. Further, the sandwich binding signal in [13] was 0.284; in [14], 0.18; in assay [15] it was 0.335; in assay [16], 0.011. Also, the “pSyk EC50” value in the assay with human TREM2 on cells [4] stood at 2.6 nM. Besides, in the assay with human TREM2 on cells [17], the “Emax (% maximum activation compared to RnD antibody)” value was found to be 122%. Moreover, the “pSyk EC50, differentiated THP-1 cells” value with human TREM2 on cells [17] was 1.05 nM. The “OD 450” value in assay [9] stood at 1.29 OD450.

B4: 26A10 (antibody, V domains shown)
VH: EVQLVESGGALVQRGGSLRLSCAASRFTFSSFGMSWVRQAPGKGLEWVSYISSSSFTIYYADSVKGRFTISRDNAKNSFYLQMNSLRDEDTAVYYCAREGGLTMVRGVSSYGLDVWGQGTTVTVSS
VL: not shown
notes: human IgG2 from hybridoma
As for B4, the sandwich binding signal in assay [1] was 0.454; in assay [2], -0.001; in [3], -0.016; in [5], -0.033; in assay [6], 0.362; in assay [7], -0.018. In addition, the sandwich binding signal in assay [8] is 0.259; in assay [10] it was 0.272; in assay [11] it was -0.02; in assay [12], 0.491; in assay [13], 0.354; in assay [14] it was 0.449. The sandwich binding signal in [15] was -0.027; in [16] it was 0.343. Besides, the “pSyk EC50” value in the assay with human TREM2 on cells [4] was determined as 1.3 nM. Further, the “OD 450” value in assay [9] was 1.16 OD450.
